Results: IntAct's records for PubMed 24292623

B1: Zinc finger protein Aiolos (Homo sapiens), Q9UKT9 (parent)
chain: MEDIQTNAELKSTQEQSVPAESAAVLNDYSLTKSHEMENVDSGEGPANEDEDIGDDSMKVKDEYSERDENVLKSEPMGNAEEPEIPYSYSREYNEYENIKLERHVVSFDSSRPTSGKMNCDVCGLSCISFNVLMVHKRSHTGERPFQCNQCGASFTQKGNLLRHIKLHTGEKPFKCHLCNYACQRRDALTGHLRTHSVEKPYKCEFCGRSYKQRSSLEEHKERCRTFLQSTDPGDTASAEARHIKAEMGSERALVLDRLASNVAKRKSSMPQKFIGEKRHCFDVNYNSSYMYEKESELIQTRMMDQAINNAISYLGAEALRPLVQTPPAPTSEMVPVISSMYPIALTRAEMSNGAPQELEKKSIHLPEKSVPSERGLSPNNSGHDSTDTDSNHEERQNHIYQQNHMVLSRARNGMPLLKEVPRSYELLKPPPICPRDSVKVINKEGEVMDVYRCDHCRVLFLDYVMFTIHMGCHGFRDPFECNMCGYRSHDRYEFSSHIARGEHRALLK
B2: DNA-binding protein Ikaros (Homo sapiens), Q13422-1 (parent)
chain: MDADEGQDMSQVSGKESPPVSDTPDEGDEPMPIPEDLSTTSGGQQSSKSDRVVASNVKVETQSDEENGRACEMNGEECAEDLRMLDASGEKMNGSHRDQGSSALSGVGGIRLPNGKLKCDICGIICIGPNVLMVHKRSHTGERPFQCNQCGASFTQKGNLLRHIKLHSGEKPFKCHLCNYACRRRDALTGHLRTHSVGKPHKCGYCGRSYKQRSSLEEHKERCHNYLESMGLPGTLYPVIKEETNHSEMAEDLCKIGSERSLVLDRLASNVAKRKSSMPQKFLGDKGLSDTPYDSSASYEKENEMMKSHVMDQAINNAINYLGAESLRPLVQTPPGGSEVVPVISPMYQLHKPLAEGTPRSNHSAQDSAVENLLLLSKAKLVPSEREASPSNSCQDSTDTESNNEEQRSGLIYLTNHIAPHARNGLSLKEEHRAYDLLRAASENSQDALRVVSTSGEQMKVYKCEHCRVLFLDHVMYTIHMGCHGFRDPFECNMCGYHSQDRYEFSSHITRGEHRFHMS

Variants of: B1
Conditions: with crbn_human CRBN

Row | effect of a mutation on the interaction | Variant
1 | decreasing interaction strength | Q147H

Variants of: B2
Conditions: with crbn_human CRBN

Row | effect of a mutation on the interaction | Variant
2 | decreasing interaction strength | Q146H
